{"source": "patent US20160202264A1", "about": "“A high-throughput assay to identify molecules that modulate Rb-E2F binding” (The Regents of the University of California, priority 2013, published 2016)", "molecular_target": "T1, Rb-E2F binding (RbNP construct, E2FTMR peptide) (Homo sapiens, UniProt P06400, DEL245-267/DEL582-642)", "T1 construct": "lacks the internal loops in each domain (residues 53-787, Δ245-267, Δ582-642)", "T1 sequence (P06400 with tags, fused parts or gaps DEL245-267/DEL582-642, one chain of several)": "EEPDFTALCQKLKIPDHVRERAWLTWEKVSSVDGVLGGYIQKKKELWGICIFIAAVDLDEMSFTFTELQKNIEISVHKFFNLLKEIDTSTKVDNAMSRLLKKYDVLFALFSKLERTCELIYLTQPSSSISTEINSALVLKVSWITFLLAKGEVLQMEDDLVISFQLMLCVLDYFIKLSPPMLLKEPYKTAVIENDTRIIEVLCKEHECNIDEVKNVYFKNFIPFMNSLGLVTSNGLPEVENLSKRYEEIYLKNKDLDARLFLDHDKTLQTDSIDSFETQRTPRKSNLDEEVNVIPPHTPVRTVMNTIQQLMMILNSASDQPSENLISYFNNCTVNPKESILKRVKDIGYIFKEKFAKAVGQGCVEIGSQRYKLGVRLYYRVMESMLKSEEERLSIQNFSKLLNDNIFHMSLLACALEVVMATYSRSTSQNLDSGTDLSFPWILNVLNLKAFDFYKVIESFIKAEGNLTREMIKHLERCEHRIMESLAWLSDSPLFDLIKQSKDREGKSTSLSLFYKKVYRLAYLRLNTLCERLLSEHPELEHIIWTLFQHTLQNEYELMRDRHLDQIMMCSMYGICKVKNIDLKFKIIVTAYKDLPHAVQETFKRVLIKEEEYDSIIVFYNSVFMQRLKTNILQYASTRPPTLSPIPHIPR", "assay": "Fluorescence polarization titration of RbNP into E2FTMR", "details": "RbNP titrated into 10 nM E2FTMR", "description": "The inventors have designed and successfully implemented a high-throughput fluorescence polarization assay to screen molecules for their modulation of Rb-E2F binding affinity. In the current exemplary format, a peptide corresponding to the E2F transactivation domain (E2F2 amino acids 409-428) was synthesized with a tetramethylrhodamine dye (TMR) at its N-terminus (E2FTMR). This peptide can then be mixed with various Rb constructs, which bind the peptide and change the polarization of the TMR fluorescence. For initial experiments, the investigators have used an Rb construct RbNP, which contains the Rb N-terminal domain and pocket domain but lacks the internal loops in each domain (residues 53-787, Δ245-267, Δ582-642).\nThe affinity of E2FTMR for unphosphorylated Rb is approximately 7-fold tighter than its affinity for phosphorylated RbNP. In the presence of 10 μM synthetic peptide that contains the ‘L×C×E’ sequence from the E7 oncoprotein, phosphorylated Rb binds E2F with 2-fold higher affinity. This peptide, which has a similar effect in calorimetry measurements of affinity, binds near the RbN-pocket interface, and the investigators predict it inhibits interdomain docking.", "note": "Where no end group is shown, it is not given here."}
{"substance": "E2FTMR: peptide corresponding to the E2F transactivation domain (E2F2 amino acids 409-428) with a tetramethylrhodamine dye at its N-terminus (tetramethylrhodamine-QDDYLWGLEAGEGISDLFDS; UniProt Q14209 409-428, looked up, fragment)", "values": [{"measurement": "Affinity of E2FTMR for unphosphorylated Rb relative to phosphorylated RbNP", "value": "approximately 7 fold"}]}
